This note sets out measurements from patent US20130315928A1.

For experiment [1], the target named is equine choriogonadotropin (eCG) or PMSG (equine) (UniProt P01220). In words: ELISA on commercial eCG, antibody at 10 µg/ml. In general terms: In an ELISA, binding on a coated surface is turned into a signal by an enzyme label.
For experiment [2] the target is unchanged. In words: ELISA on commercial eCG, antibody at 1 µg/ml.

Sequence of equine choriogonadotropin (eCG) or PMSG (equine) (P01220 25-120 limits assumed, chain 1 of 2): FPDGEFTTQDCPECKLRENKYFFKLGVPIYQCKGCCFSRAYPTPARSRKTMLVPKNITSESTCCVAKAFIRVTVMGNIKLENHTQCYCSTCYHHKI
Sequence of equine choriogonadotropin (eCG) or PMSG (equine) (P08751 21-169 limits assumed, chain 2 of 2, further chain): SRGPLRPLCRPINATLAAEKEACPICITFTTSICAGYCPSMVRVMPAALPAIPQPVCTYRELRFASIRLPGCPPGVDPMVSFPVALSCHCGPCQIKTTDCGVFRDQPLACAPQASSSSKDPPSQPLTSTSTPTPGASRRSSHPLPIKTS

“isotypic control (IgM directed against another type of antigen very remote from the gonadotropic hormones) (antibody)”: the OD in experiment [1] and in experiment [2] was 0.09 OD in each case.
